According to patent US20090130105A1 (Biogen, published 2009):

How the values were obtained:
Test in all cases: SPR, Fab over captured mutant
[1] = biological target: T1, hIGF-1R-Fc mutant SD103 (D461A, V462T) (human, UniProt P08069 31-933)
T1 construct: not shown: human IgG1 Fc, C-terminal tag
Description: (§1) Surface plasmon resonance (SPR) experiments were performed on a Biacore 3000 instrument set to 25° C. […] The antibody sensorchip surfaces were prepared by injecting each antibody (diluted 100 μg/mL in 10 mM Acetate, pH 4.0) over EDC/NHS-activated sensorchip surfaces according to the standard protocol of the manufacturer. […] Both hIGF-1R-Fc and mIGF-1R-Fc proteins oligomerize due to the incorporation of two separate homodimeric regions (IGF-1R and IgG1-Fc). […] After, completion of the receptor-Fc loading step, flow rates were elevated to 5 μl/min. […] Dissociation was measured for 7 minutes after the antibody injections were complete. Finally, the flow rate was elevated to 30 μL/min and the chip surfaces were regenerated by 2×10 μL injections of 0.1 M glycine, pH 2.

[2] = biological target: T2, hIGF-1R-Fc mutant SD110 (E533H) (human, UniProt P08069 31-933)
T2 construct: not shown: human IgG1 Fc, C-terminal tag
T2 sequence (P08069 31-933 E563H): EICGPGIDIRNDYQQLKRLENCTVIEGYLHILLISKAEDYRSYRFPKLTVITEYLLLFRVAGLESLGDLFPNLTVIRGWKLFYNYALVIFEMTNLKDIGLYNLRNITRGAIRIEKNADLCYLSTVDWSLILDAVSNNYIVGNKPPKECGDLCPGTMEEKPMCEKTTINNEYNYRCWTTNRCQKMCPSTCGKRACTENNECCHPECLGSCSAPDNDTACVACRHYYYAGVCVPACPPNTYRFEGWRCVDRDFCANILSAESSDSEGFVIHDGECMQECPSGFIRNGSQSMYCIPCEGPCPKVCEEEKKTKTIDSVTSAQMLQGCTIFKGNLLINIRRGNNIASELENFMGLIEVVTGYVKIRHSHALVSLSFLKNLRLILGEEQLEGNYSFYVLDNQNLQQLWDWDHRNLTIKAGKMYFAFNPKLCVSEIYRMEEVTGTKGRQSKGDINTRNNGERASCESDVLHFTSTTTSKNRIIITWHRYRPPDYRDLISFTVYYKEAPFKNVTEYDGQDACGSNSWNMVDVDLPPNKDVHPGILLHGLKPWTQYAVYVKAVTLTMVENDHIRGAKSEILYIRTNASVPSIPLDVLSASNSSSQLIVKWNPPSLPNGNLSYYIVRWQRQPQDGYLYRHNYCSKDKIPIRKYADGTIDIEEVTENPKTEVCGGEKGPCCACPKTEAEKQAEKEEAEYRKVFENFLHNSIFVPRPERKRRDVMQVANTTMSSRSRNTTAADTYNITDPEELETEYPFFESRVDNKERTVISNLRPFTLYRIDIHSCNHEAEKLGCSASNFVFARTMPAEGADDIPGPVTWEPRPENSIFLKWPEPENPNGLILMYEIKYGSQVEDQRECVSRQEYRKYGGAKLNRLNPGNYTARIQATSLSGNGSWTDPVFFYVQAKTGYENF
Description: as §1

[3] = biological target: T3, hIGF-1R-Fc mutant SD108 (H480E) (human, UniProt P08069 31-933)
T3 construct: not shown: human IgG1 Fc, C-terminal tag
T3 sequence (P08069 31-933 H510E): as the sequence (P08069 31-933 E563H) above, with H480E, H533E counted along it
Description: as §1

[4] = biological target: T4, hIGF-1R-Fc mutant SD015 (H464E) (human, UniProt P08069 31-933)
T4 construct: not shown: human IgG1 Fc, C-terminal tag
T4 sequence (P08069 31-933 H494E): as the sequence (P08069 31-933 E563H) above, with H464E, H533E counted along it
Description: as §1

[5] = biological target: T5, hIGF-1R-Fc mutant SD102 (E459A, S460A) (human, UniProt P08069 31-933)
T5 construct: not shown: human IgG1 Fc, C-terminal tag
T5 sequence (P08069 31-933 E489A/S490A): as the sequence (P08069 31-933 E563H) above, with E459A, S460A, H533E counted along it
Description: as §1

[6] = biological target: T6, hIGF-1R-Fc mutant SD109 (Y482A, R483W) (human, UniProt P08069 31-933)
T6 construct: not shown: human IgG1 Fc, C-terminal tag
T6 sequence (P08069 31-933 Y512A/R513W): as the sequence (P08069 31-933 E563H) above, with Y482A, R483W, H533E counted along it
Description: as §1

[7] = biological target: T7, hIGF-1R-Fc mutant SD104 (H464A) (human, UniProt P08069 31-933)
T7 construct: not shown: human IgG1 Fc, C-terminal tag
T7 sequence (P08069 31-933 H494A): as the sequence (P08069 31-933 E563H) above, with H464A, H533E counted along it
Description: as §1

[8] = biological target: T8, hIGF-1R-Fc mutant SD113 (E570A, I571T) (human, UniProt P08069 31-933)
T8 construct: not shown: human IgG1 Fc, C-terminal tag
T8 sequence (P08069 31-933 E600A/I601T): as the sequence (P08069 31-933 E563H) above, with H533E, E570A, I571T counted along it
Description: as §1

T1 sequence (P08069 31-933 D491A/V492T): as the sequence (P08069 31-933 E563H) above, with D461A, V462T, H533E counted along it

binding result [1]: no binding (tested: up to 30 nM Fab) | binding result [2]: no binding (tested: up to 30 nM Fab) | binding result [3]: no binding (tested: up to 30 nM Fab) | binding result [4]: no binding (tested: up to 30 nM Fab) | binding result [5]: no binding (tested: up to 30 nM Fab) | binding result [6]: no binding (tested: up to 30 nM Fab) | binding result [7]: no binding (tested: up to 30 nM Fab) | binding result [8]: no binding (tested: up to 30 nM Fab)
B1: M14-C03 Fab (Fab, V domains shown)
VH: EVQLLESGGGLVQPGGSLRLSCAASGFTFSKYMMSWVRQAPGKGLEWVSYISPSGGLTWYADSVKGRFTISRDNSKNTLYLQMNSLRAEDTAVYYCARDGARGYGMDVWGQGTTVTVSS
VL: DIQMTQSPATLSLSPGERATLSCRASQSVSSYLAWYQQKPGQAPRLLIYDASNRATGIPARFSGSGSGTDFTLTISSLEPEDFAVYYCQQRSNWPPEVTFGPGTKVDIK
notes: Enzymatically derived Fab
